This is an account of results in US20240358755A1 (IMMATICS BIOTECHNOLOGIES, published 2024).

The target in one experiment is T1, HLA-A*01:01 (human).
T1 construct: Peptide-receptive MHC class I monomer: a UV-sensitive peptide (not specified) is cleaved and exchanged with the test peptide
In words: UV peptide exchange, anti-b2m ELISA; exchange yield grade.

Another experiment addresses T2, HLA-A*24:02 (human).
T2 construct: Peptide-receptive MHC class I monomer in the UV-ligand exchange assay
Described as above.

For the next experiment, the target named is HLA-B*44:05 (human). The description is as above.
Experiment [1] deals with T3, HLA-B*08:01 (human).
T3 construct: Peptide-receptive MHC class I monomer in the UV-ligand exchange assay
In words: allele assigned to HLA ligand eluted from tissue (IP, LC-MS).

Experiment [2] concerns the target T3, HLA-B*08:01. In words: UV peptide exchange, anti-b2m ELISA; exchange yield grade. (An ELISA detects its analyte on a solid surface through an enzyme-linked reagent.)

In the case of ETNTIEFIY, the peptide exchange yield in the experiment with HLA-A*01:01 was ≥ 75%.

Consider IYFHLNNWTI, for which, in the experiment with HLA-A*24:02, the binding result is reported as “binds”.

As for NSENLLVY, the peptide exchange yield in the experiment with HLA-A*01:01 was 50 to 75%.

For DVDIHKDLY, the peptide exchange yield in the experiment with HLA-A*01:01 is ≥ 75%.

For WETRLHNLW, the binding result with HLA-B*44:05 is “binds”.

In the experiment with HLA-A*01:01, ASSPVILLL registered a peptide exchange yield of 20 to 50%.

For the molecule SFSLLLPYL, the binding result with HLA-A*24:02 is “binds”.

For LHLNPGLSF, in the experiment with HLA-A*24:02, the binding result is “binds”.

TILAKQNVL: the binding result with HLA-B*08:01 [1] is “binds”.

For LNFSDVFLY, in the experiment with HLA-A*01:01, the peptide exchange yield was in the range of 20 to 50%.

Take NVSFEVSLLY: in the experiment with HLA-A*01:01, the peptide exchange yield was ≥ 75%.

Consider YSSEIWDLY, for which, in the experiment with HLA-A*01:01, the peptide exchange yield is ≥ 75%.

In the experiment with HLA-A*01:01, VSPDEVLALW yielded a peptide exchange yield of 20 to 50%.

In the case of GRFWLPFNF, the binding result with HLA-A*24:02 is reported as “binds”.

Turning to YAFRNQTL, in the experiment with HLA-B*08:01 [2], the binding result is recorded as “binds”.

Regarding EAAPNIMHY, the peptide exchange yield with HLA-A*01:01 was 20 to 50%.

Molecule RADEEQASF returned a peptide exchange yield with HLA-A*01:01 of 20 to 50%.

Turning to LIDSLLLLL, in the experiment with HLA-A*01:01, the peptide exchange yield lay in the range of 50 to 75%.

TVDKGELLY: the peptide exchange yield in the experiment with HLA-A*01:01 is ≥ 75%.

For the molecule KYPTIICGF, the binding result in the experiment with HLA-A*24:02 is “binds”.

Regarding NSDLFYLLL, in the experiment with HLA-A*01:01, the peptide exchange yield was ≥ 75%.

Consider VFIPSVINL, for which the binding result with HLA-A*24:02 is reported as “binds”.

Turning to FTQKINSTW, the peptide exchange yield in the experiment with HLA-A*01:01 was 20 to 50%.

Regarding FSEIFQDFL, the peptide exchange yield in the experiment with HLA-A*01:01 is 50 to 75%.

As for IYIPTNSIYKF, the binding result with HLA-A*24:02 is “binds”.

As for VQSGVPSRF, in the experiment with HLA-A*24:02, the binding result was “binds”.

Consider LYQTTIELF, for which the binding result in the experiment with HLA-A*24:02 is on record as “binds”.

Regarding NQKGLISL, the binding result in the experiment with HLA-B*08:01 [2] is given as “binds”.

On to SADTAELLL, for which the peptide exchange yield with HLA-A*01:01 lay within 20 to 50%.

On to AYIPFPPLI, for which, in the experiment with HLA-A*24:02, the binding result was “binds”.

As to TAMTTLMAF, the binding result with HLA-B*08:01 [1] was “binds”.

As for VANDRLSFL, the binding result with HLA-B*08:01 [2] was “binds”.

As for ILRTVLPSL, the binding result in the experiment with HLA-B*08:01 [1] is given as “binds”.

As for LYIFTTRPF, the binding result with HLA-A*24:02 is on record as “binds”.

Take IFDLSDPRF: the binding result with HLA-A*24:02 is on record as “binds”.

Consider SHSLPAFTL, for which, in the experiment with HLA-A*24:02, the binding result is reported as “binds”.
